Data as given in IntAct's records for PubMed 24485452.

B1: Golgi phosphoprotein 3 (Homo sapiens), Q9H4A6 (parent)
chain: MTSLTQRSSGLVQRRTEASRNAADKERAAGGGAGSSEDDAQSRRDEQDDDDKGDSKETRLTLMEEVLLLGLKDREGYTSFWNDCISSGLRGCMLIELALRGRLQLEACGMRRKSLLTRKVICKSDAPTGDVLLDEALKHVKETQPPETVQNWIELLSGETWNPLKLHYQLRNVRERLAKNLVEKGVLTTEKQNFLLFDMTTHPLTNNNIKQRLIKKVQEAVLDKWVNDPHRMDRRLLALIYLAHASDVLENAFAPLLDEQYDLATKRVRQLLDLDPEVECLKANTNEVLWAVVAAFTK

Variants of: B1
Conditions: with my18a_human MYO18A

Row | Variant | effect of a mutation on the interaction
1 | T143D;T148D | increasing interaction strength
2 | T143E;T148E | increasing interaction strength
